Data on two molecules can be found in patent publication US20070014786A1 (RINAT NEUROSCIENCE, published 2007).

Experiment [1] deals with T1, human trkC (human, UniProt Q16288 32-429, limits assumed).
T1 construct: also called htrkC
The experiment in a line: BIAcore (SPR); format not stated. A general note: SPR reads the build-up and loss of mass on a sensor chip optically.

In another experiment the target is rat trkC (rat, UniProt Q03351 32-429, limits assumed). The experiment in a line: BIAcore (SPR); format not stated; rat trkC.
In experiment [2] the target is T1, human trkC. The experiment can be described thus: BIAcore (SPR); format not stated; human trkC.

B1: mouse anti-trkC agonist monoclonal antibody 2256 (antibody, V domains shown)
VH: QVQLQQPGAELVKPGASVKLSCKASGYTFTSYWMHWVKQRPGQGLEWIGEIYPSNGRTNYNEKFKSKATLTVDKSSSTAYMQLSSLTSEDSAVYYCARKYYYGNSYRSWYFDVWGAGTTLTVS
VL: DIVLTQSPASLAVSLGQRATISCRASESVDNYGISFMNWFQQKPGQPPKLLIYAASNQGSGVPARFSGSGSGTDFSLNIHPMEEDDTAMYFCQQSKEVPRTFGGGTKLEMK
B1: the Kd with human trkC [1] is approximately 40 nM.

B2: humanized anti-trkC agonist antibody A5 (antibody, V domains shown)
VH: QVQLVQSGAEVKKPGASVKVSCKASGYTFTSYRIHWVRQAPGQGLEWMGEIYPSNARTNYNEKFKSRVTMTRDTSTSTVYMELSSLRSEDTAVYYCARKYYYGNTRRSWYFDVWGQGTTVTVS
VL: DIQMTQSPSSLSASVGDRVTITCRASESIDNYGISFLAWYQQKPGKAPKLLIYAASNRGSGVPSRFSGSGSGTDFTFTISSLQPEDIATYYCQQSKTVPRTFGQGTKLEIKR
As to B2, the results for the Kd with rat trkC and with human trkC [2] were approximately 19 nM and approximately 0.28 nM, respectively.

Broadly, the Kd is the concentration at which binding is half-saturated. A high value points to lower affinity.
